Assay: yeast display, Sf9 membrane polyspecificity reagent, FACS + sequencing; frameworks hold sequencing errors
Summary of the method: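 Galactose-induced (36–48 hours) yeast carrying a synthetic nanobody display library were exposed to 10% biotinylated, detergent-solubilized Sf9 membrane reagent at 4 °C for 1 hour. FACS followed streptavidin microbead enrichment, using low and high (top ~1%) gates for expression (anti-HA) and reagent binding (streptavidin). Colony PCR, MiSeq 2 × 250 sequencing and CDR-length filtering followed. Labels for polyreactivity reflect the gate of origin.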

Row | Sequence | polyreactivity (PSR sort gate)
1 | QVHLVESGGGLVQAGGSLRLSCAASGSIFYTNAMGWYSQAPGKERELVAAISYSGGRTYYADSVKGRFTISRDNAKNTVYIQMNSLKPEDTAVFYCNTVLRGGSTEAFDYWGQGTKVTVSS | high polyreactivity
2 | QVQLVESGGGLVQAGGSLRLICAASGSIFLLYDMGWYRQAPGKERELVAAITWSGGSTYYADSVKGRFTISRDNAKNTVYLQMNSLKPEDTAVYYCAADEPYPTAYEYWGQGTQVTVSS | low polyreactivity
3 | QVQLVESGGGLVQAGGSLRLSCAASGFTSWQYAMGWYRQAPGKERELVAAISVSGASTYYADSVKGRFTISRDNAKNTVYLQMNSLKPEDTAVYYCAAAYVRYPTTRYYYWGQGTQVTVSS | high polyreactivity
4 | QVHLVESGGGLVQAGGSLRLSCAASGITFNIYTLGWYRQAPGKEREFVATISSSGGGTYYADSVKGRFTISRDNSKNTVYFQMNSLKPEDTAVYYCARYGIGADGYDYWGQGTQVTVSS | low polyreactivity
5 | QDQLVESGGGLVQAGCSLRFTCAACGRIFHYYAMGWYRQAPGKERELVAAITSSRGSTYYADSVKGRFTISRDNAKKTGYVQMNSLQPEDTAVYYCAAGLIVGRFVRYDYWGQGTHVTVSS | high polyreactivity
6 | QVQLVESGRGLVQAGGSLRLSCAASGRISVFNAMGWYRQAPGKERELVAAISWSGGSTYYADSVKGRFTISRDNAKNTVYLQMNSLKPEDTAVYYCAARGHYQYYWGQGTQVTVSS | low polyreactivity
7 | QVQLVETGGGLVQAGGILRLSCAASGSIFKAYAMGWYRQAPGKERELVAAITWSGGSTYYADSVKGRFTNSRDNAKNTVYLQMNSLKPEDTAVYYCAATLGLWAYYLYDYWGQGTQVTVSS | low polyreactivity
8 | QVQLVESGGGLVQAGGSLRLSCAASGSTFPYNARGWYRQAPGKETELVAAISSSGGSTYYADSVKGRFTISRDNAKNTVYLQMNSLKPVDTEVYYCNAVLRYSIYPSSSFSYVGYYYWGQGTQVSVSS | high polyreactivity
9 | QVQLVESGAGIVQAGGSLRLSCAASGRIFRYNAMGLYRQAPGKERELVAAITWSGVSTYYAHSVKGRFTISRDTAKITVFLQMNSLYPEDTGVYYCNGRRWPAWSSYDYWGQGTQVNVSS | high polyreactivity
10 | QVQLVESGGGKVQAGGSLRLSCAASGFIFRYYAMGWYRQAPGKERELGAAISKRGGSTYYADSVKGRFTISRDNAKNTVYLQMNSLKADDTAVYYCARGYPIDPSFDTYDYWGQGTQVTVSS | high polyreactivity
11 | QVQLVETGGGLVQAGGSLRLSCAASGRTFAYNAMGWYRQAPGKARELVAAITGSGGRTYYADSVKGRFTISRDNAKNTVYLQMNSLKPEETAVYYCAAEGPEIKYYYWGQGTQVTVSL | low polyreactivity
12 | QVQLVESGGGLVQAGGSLRLSCAASGYIFDIYDMGWYRQATGKERELVAAITDYADSVKGRFTISRDNAKNTVYLQMNSLKPEDTAVYYCNVKFLVQPVTSVIGDYWGQGTQVTVSS | low polyreactivity
13 | QVQLVESGGGLVQAGGSLRLSCAASGSTFLRYVMGWYRQAPGKERELVAAISRRGGSTYYADSVKGRFTISRDNAKNTVYLQMNSLNPEDTAGYYCARTVGYRTLLESDSCGQGTQVTVSS | high polyreactivity
14 | QVQHVESGGGLVQAGGSLRLSCAAYYAMGWYRQAPGKERELVAAISSTGRTNYADSVKGRFTISRDNAKNTVYLQMNSLKPEDTAVYYCNAGDPSGMDYWGQGTQVTVSS | low polyreactivity
15 | QVQLVESGGGLVQAGGSLRLSCAASGIIFVHYALGWYRQAPGKEWQLVAAITSGGSTKYADSVKGRFTISRDNAKNTVYLQMNSLKPEDTAVYYCAAGHYVYWYRYQLGGYNYWGIGTQVTVSS | high polyreactivity
16 | QVQLVESGGGLVQAGGSLRLSCAASGFTFGFNAMGWYRQAPGKEREFVASITYRGGSTYYADSVKGRFTISRDNAKNTVYLQMNSLKPEDTAVYYCAAASPWRRYISDYWGQGTQVTVSS | high polyreactivity
17 | QVQLVESGGGLVQAGGSLRLSCAASGRIFFNYAMGWYRQAPGKERELVAAITRSGGRTYYADSVKGRFTISRDNAKNTVYLQMNSLKPEDTAVYYCAADSGSRGSVAHEYWGQGTQVTVSS | high polyreactivity
18 | QVQLVESGGGLVQAGGSLRLSCAASGRTFALNAMGWYRQAPGKERELVAAISWSSGRTYYADSVKGRFTISRDNAKNKVYLQMNSLKPEDTAVYYCAALVAHKGDYWGQGTQVTVSS | high polyreactivity
19 | QVQLVESGGGLVQAGGSLRISCAASGITFNKNDMGWYRQAPGKERELVAAISGRGGSTYYADSVKGRVTISRDNAKNTVYLQMNSLKPEDTAVYYCAADNFKGDSYGTGNYDYWGQGTQVTVSS | high polyreactivity
20 | QVQLVESGGGLVQAGGSLRLSCAASGLTFPGYVMGWYRQAPGKERELVAAITNGGRTYYADSVKGRFTISRDNAMNTVYLQMNSLKPEDTAVYYCNTARGSKDPPHYYWGQGTQVTVSS | high polyreactivity
21 | QVQLVESGGGLVQAGGSLRLSCAASGRTFRVYAMGWYRQAPGKERELVAAIRRSGGSTYYADSVKGRFTISRDNAKNTVYLQMNSLKPEDTAVYYCAAYFYYWGSTFVRYEYWGLGTQVTVSS | high polyreactivity
22 | QVQLVESGGGLVQAGGSLRLSCAASGSIFVYNAMGWYRQAPGKERELVAAITTGGSTNYADSVKGRFTISRDNAKNTVYLQMNSLKPEDTAVYDCNAVHEASYAGVDYWGQGTQVTVSS | low polyreactivity

Row | Sequence | polyreactivity (PSR sort gate)
23 | QVQLVESGGGLVQAGGTLRLSCAASGSTFGGYAMGLYRQAPGKERELVAAITWSGDTYYADSVKGRFTISRDNAKNSVYLQMNSLKPEDTAVYYCAAYSRVGPYRYAYWGQGTQVTVSS | high polyreactivity
24 | QVQLVESGGGLVQAGGSLRLSCAASGIIFAWYAMGWYRQAPGKERELVAAISYSGGTTYYADSVKGRFTISRDNAKNTVYLQMNSLKPEDTAVYYCAARLHHFFTYDYWGQGTQVTVSS | low polyreactivity
25 | QVHLVESGGGLVQAGGSLRLSCPASGLTFYRYAMGLYRPAPGKERELVAAISSGGNTYYADSVKGRFTISRDNAKNTVYLQMNSMKPEDTAVYYCAAESYALRGHPGYYYWGQGSQVTVSS | high polyreactivity
26 | QVQHVESGGGLVQAGGSLRLSCAASGFIYSTNAMGWYRQAPGKERELVATIRSGGSTNYADSVKGRFTISRDNAKNTVYLQMNCLQPEDTAVYYCNVDDTSWTTSGGRFGQVESDYWGQGTQVTVSS | low polyreactivity
27 | QVHLVESGGGLVQAGGSLSLSCAASGRNFRAYAMGWYRQAPGKETEFVAAISRSGGSTYYADSVKGRFTISRDYAKNTVYLQMHSLKPVDTAVYYCAARVRYPYRYYYWGQGTQVTVSS | high polyreactivity
28 | QVQLVESGGGLVQAGGSLRLSCAASGFTFGYNAMGWYRQAPGKERELVAAISSSGGSTYYADSVKGRFTISRDNAKNTVYLQMNSLKPEDTAVYYCAKRTPRKWGQGTQVTVSS | high polyreactivity
29 | QVQLVESGGGLVQAGGSLRLSCAASGRTFIKNAMGWYRQAPGKERELVATISKRGGRTYYADSVKGRFTISRDNAKNTVYLQMNSLKPEDTAVYYCAARYRKSGLDKYWGQGTQVTVSS | high polyreactivity
30 | QVQLVESGGGLVQAGGSLRLSCAASGRTFFWNAMGWYRQAPGKERELVAAITWSGGSTYYADSVKGRFTISRDNAKTTVYLQMNSLKPEDTAVYYCAAVVSDYVWRYEYWGQGTQVTVSS | low polyreactivity
31 | QVQLVESGGGLVQAGGSLRLSCAASGSTFGKYAMGWYRQAPGKEREFVAAITWSGGRTYYADSVKGRFTISRDNAKNTVYLQMNSLKPEDTAVDYCAALWAYYSRGYYWGQGTQVTVSW | high polyreactivity
32 | QVQLVESGGGLVQAGGSLRLSCAASGSIFFLYAMGWYRQAPGKERELVAAISRDGRTNYADSVKGRFTISRDNAKNTVYLQMNSLKPEDTAVYYCAKDGNHPGAVVYGYWGQRTQVTVSS | low polyreactivity
33 | QVQLVESGGGLVQAGGSLRLSCAASGRIFVTYAMGWYRHAPGKERELVAAITSDGSTSYADSVKGRFTISRDNAKNTGYLQMNRLKPEDTAVYYSAKDFFEHSPVSHTYSSSKYEYWGQGTQVTVSS | low polyreactivity
34 | QVKLVESGGGLVQAGGSLRLSCAASGRTFYRNTMGWYRQAPGKERELVAAITRSGGSTYYADSVKGRFTISRDNAKNTVYLQMNRLKPEDTAVYYCARPKIHGETRSYGYGYWGQGTQVTVSS | high polyreactivity
35 | QVQLVESGGGLVQAGGSLRLSCAASGRIFRLYAMGWYSQEPGKDRELVATITSGGTYYADSVKGRFTISRDNAKNTVYLQMISLSPEDTAVYYCTARRRLRYDFWGQGTQVTVSS | low polyreactivity
36 | QVQLVESGGGLVQAGGSLRLSCAASGSIFVLYAMGWYRQAPGKEREFVAAISWSGDSTYYADSVKGRFTISRDNAKNTVFLQMNSLKPEDTAVYYCAVYGYRTKYGYWGQGTQVTVSS | high polyreactivity
37 | QVQLVESGGGLVQAGGSLRLSCAASGSIFAWYAMGWYRQAPGKERELVADITQSGGSTYYADSVKGRFTISRDNAKNTVYLQMNSLKPEDTAVYYCVDYWYNYLQSGWEDDYWGQGTQVTVSS | low polyreactivity
38 | QVQLVESCGGLVQAGGSLRLSCAASGIIFPPYAMGWYRPAPGKERELVAAITRSGASTYYADSVKGRFTISRDNAKNTVYLQMNSLKPEDTAVYYCAVGVPGGYWKDYYWGQGTQVTVSS | high polyreactivity
39 | QVQLVESGGGLVQAGGSLRLSCAASGSTFGDYAMGWYRQAPGKERELVAAISVSGASTYYADSVKGRFTISRDNAKNTVYLQMNSLKPEDTAVYYCAATYDTIGDSWGQGTQVTVSS | low polyreactivity
40 | QVQLVESGGGLVQAGGSLRLSCASSGRTFVNNAMGWSRQAPGKERELVAAISQSGSRTYYADSVKGRFTISRDNAKNTVYLQMNSLKPEDTAVYYCAARGARYSTSDYWGQGTQVTVSS | high polyreactivity
41 | QVQLVESGGGLVQAGGSLRLSCAASGFTFRHYTMGWYRQAPGKERELVAAISSSGVTTYYADSVKGRFTISRDNAKNTVYLQMISLKPEDTAVYYCADRPYYYYVDYDYWGLGTQVTVSS | high polyreactivity
42 | QVQLVESGGGLVQAGGSLRLSCAASGITFYGYAMGWYRQAPGKEREFVATISKSGGITSYADSVKGRFTISRDNAKNTVYLQMNSLKPEDTAVYYCNRGKRYGGYDYWGQGSQVTVSS | low polyreactivity
43 | QVQLVESGGGLVQAGGSLRLSCAASGNIFHFYAMGWYRQAPGKERELVATISWRGDGTYYADSVKGRFTISRDNAKYTVYLQMNSLKPEDTAVYYCAARGVWPEYDYWGQGTQVTVSS | low polyreactivity
